From PMC6823300, “The molecular basis of monopolin recruitment to the kinetochore” (Chromosoma, 2019)
Where no end group is shown, it is not given here. The star is where a group is joined. FITC = O=C1OC2(c3ccc(O)cc3Oc3cc(O)ccc32)c2ccc(NC(=S)*)cc21

Tests used:
[1] = target: T1, S. cerevisiae Csm1 globular domain (residues 69–190 of 190), untagged (S. cerevisiae, UniProt P25651 69-190); assay: ITC; Microcal ITC 200; His6-MBP-fused Dsn1 fragments at 1–1.5 mM injected into a sample cell containing untagged Csm1 at 100–200 μM; protein buffer (20 mM Tris-HCl pH 7.5, 5% glycerol) plus 300 mM NaCl and 1 mM dithiothreitol; conditions: both partners purified
T1 construct: S. cerevisiae Csm1, globular domain, residues 69-190 of 190; also called Sc Csm1^69–190; untagged Csm1
T1 sequence (looked up): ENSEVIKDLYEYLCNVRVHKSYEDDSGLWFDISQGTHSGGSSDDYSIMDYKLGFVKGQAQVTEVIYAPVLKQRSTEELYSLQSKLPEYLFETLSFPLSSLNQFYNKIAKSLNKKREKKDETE

[2] = target: T2, S. pombe Csm1 C-terminal globular domain (residues 125–261), wild type (S. pombe, UniProt O13684 125-261); assay: fluorescence polarisation; Csm1 125–261 at 20 nM-250 μM with 20 nM FITC-labelled Mis13 5–17 peptide; 20 mM Tris 7.5, 300 mM NaCl, 10% glycerol, 0.01% NP-40, 1 mM DTT; triplicate; single-site binding model; conditions: both partners purified
T2 construct: S. pombe Csm1 (also called Pcs1), C-terminal globular domain, residues 125-261; also called S. pombe Csm1^125–261; Sp Csm1; source: E. coli Rosetta2 (DE3) pLysS, purified
T2 sequence (looked up): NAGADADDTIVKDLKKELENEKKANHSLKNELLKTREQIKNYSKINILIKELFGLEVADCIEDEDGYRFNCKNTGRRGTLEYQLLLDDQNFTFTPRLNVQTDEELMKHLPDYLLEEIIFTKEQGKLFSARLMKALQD

| Binder | Kd [1] [µM] | Kd [2] [µM] |
| --- | --- | --- |
| DLKFKRHKNKHIQGFPTLGERLDNLQDIKKAKRVENFNSS (domain or fragment, UniProt P40568 71-110, looked up, S. cerevisiae Dsn1, Box 1-2-3 region, residues 71-110 of 576; also called Sc Dsn1^71–110; His6-MBP-fused Dsn1 fragment; source: E. coli Rosetta2 (DE3) pLysS, purified) [His6-MBP-fused S. cerevisiae Dsn1 Box 1-2-3 region (residues 71–110 of 576)] | 12 | – |
| {FITC}-PEEQEGFVFVRKG (S. pombe Mis13 (Dsn1), Dsn1-N/Box 1 region, residues 5-17; also called Sp Dsn1-N/Box 1 (residues 5–17); S. pombe Mis13 Dsn1-N region) [Sp Mis13 5–17 peptide (Dsn1-N/Box 1), fluorescein isothiocyanate-labelled] | – | 22 |
